In the domain aggregation screens of Martell et al. (2025):

experiment: soluble fraction after stress (log2 fold change); higher = more stays soluble; pooled small domains, quantitative proteomics; conditions: stress: 50 degC
In short: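 Pooled custom libraries of small protein domains were each held under stress at 50°C. The read-out, high-throughput quantitative proteomics, tracked how much of each protein stayed soluble. This is reported as a base-two log fold change used to indicate aggregation propensity. Higher values mean more protein remains in solution.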

Sequence	soluble fraction (log2)
HMDSINGEASISRELHGTRFDQAAAILFPEFSRSRLQAWIGAGALTLDGQTARAKDKVTQGQHLVLAAAVE	-0.0684
HMSQDTLIENGKVFLIHKVVAGQTLYGLSKAYNITIEDIIKYNPQAENGIKIGEDIKIFLKEE	-0.432
HMSNYLKSVEVFDPITNKWSYVSAMKVRRGYVAVVATMDRLYAIGGYDGENYLSTVEMYNPDTN	0.0631
HMEGAEDMNRALALAFLRDNSRSTVAQLAEHLGSSKRSAERLVAQLKDEGVLERQGSPRAGLWIVHI	-0.0818
HMNTDALIGKTGYVTEIVGERHGRIQFSGGEWSARTEGVSIPVGAEVRVDRIDGATAVVSAV	0.115
HMSFSQNIGKRIREERLRLNLTQEKLAEDVNLSMAYIGQVERGDRSLTLDNLIIVAKRLGVTIDYLLS	-1.25
HMQDENAVTYLLEIKNADANDIASVLKTLKSPDADVVVYKTLNMIIFTGQGSEINGLVKVARQLDRK	-0.417
HMRTIGDSVYEKIKYDIVHLTLKPGEKLSEASLAEKYGISKAPIRVALRKLQEEGLIVIRPQSGSIVSP	-0.568
HMASVLTAKLSEREVDVLNLLARGFTNADIAAQLHLSEGTVRNHVSTIFAKLDVNDRTQAAVIAIRHGL	-0.775
HMHSLGDQVFETIKELIVNNTYQPGELLQIDKLAAEFGVSTTPVREALLRLEGLGLVDIERNKAAVVT	-0.112
HMNLDMVINKIGIVTEDIKQDKIGEVKVLGKRWSAYSNTELKKDEKVKILSIDGVKLKVEKI	0.191
HMAPAYELTEEETKIIEILKANENIDLNELKSQAALSGKKWDKSMKNLAKYNLTKVTVDGDAKTVAYLA	0.0932
HMDYNLTKNQKIVFNLLQNSGEPLKAYTILESLKREGLKSPLQVYRALDKLVELGIIHKIESQNSFI	-0.45
HMINRMGRLVEALSHMIANTKPGARLPSEPELARQLGVSRATLREAMRTFEAQGMIHRRQGAGTFVVH	-0.402
HMKMTIEDLITQAKESNAAENYYEAFQLYSKAIDVLPNDPDLYSARGVVLFHLDRKEDSLIDMNKSVD	-0.2
HMEYKKKIGELLIDGNKKLKAANIDTYILDTQLLLGKVLGKDKLYLITNKDEEVSNFKEREFYSLIEKRI	0.00227
HMRVDLATEVHSVLRRMMSRPPTLQEIRADLDGEEPGRVHEALDALRAAFRGGRGPKNPYESLKRSLRRG	0.0134
HMTKSTSMDLGGFMIVEGSETVRLGGQILQKDVDYTIDYFSGKINFISEEALNPGAEISVSYEENQ	-0.187
HMISQATMEKMGLTNRERQLVDFIVRGASNQEISEKMFISINTVKIHVSNIFRKAGVRSRTELMDKYP	-3.49
HMQVRVERSRDKVVISGVNYYIHPVRKGETVYSIARAYGITTQDLVRENPSAAEGLKEGQSIRIPERLVD	0.0927
HMKIDELKAYLFQSVRVKNPHTQEYDTLKIIELNYYQDKIKAKLKNSDDDYITEMIFESIKHLQNFLG	-0.298
HMIYAEDFVGRQGTANTILRPSGRIEIEGEVYDAYTRGEYVEAGERVVVISQEGSTLKVRVV	-0.683
HMSSQWWYSAGGERKGPVDFATLRGLYVQGAIDGRTLAWREDMQGWEAVNDIPDLEPLRRAVPPEL	-0.0348
HMTETSKLTDAKQLLESILSSGEVSYKDIISAAEEYEIGKRTLMSAKALLSIESIKKTDGWYWTLPH	-0.213
HMRFDADELQKAYDLFDADENTPFKTIKQAYYALARRHHPDKNGDQEYFKVINNAFQLIQEHRRRRDN	-0.246
HMQVSDVTELRTILEKVITENESVATEFKEGKDAAMNFLVGQGMKATRGAADPALLKEIITGIL	0.0889
HMHKLTIEEALNYKTPANAGGPYSGKPFRDIYDQRGKAAVISFAKYYLSKATPEDPMVEVYRTLLDGAMEL	-0.875
HMEIMELPEYVVRSGSGLDAFREKWDLWDQGLMYDLKDKRAVFPIFIDGVMIDAVGRALAGAEPKWLRYTG	-0.165

Sequence	soluble fraction (log2)
HMAVGVFQKEDGYWGYRFSIIVDGKTIARRKFTDENGSKLRTKSEAVKARAAAMVAARMERVS	-2.96
HMIELDRTNLLGVFGPKSRPYALLMLSNGEMIKISIGDQFFGWRVYGIDEKSIQVQNGTKQEILRIP	-2.12
HMQERNYIVRRGDTLWDLAKTYYGSGTKYTVIYDANRDNIEAEAKRRGKQSSNGGYWIYPGTELTI	-0.368
HMVAPKDIVMPSFVGKKYTDVVNTPNSSYTFEFKKDEKNSSDYAVGFIMDQKPKAGETVKSNATVTLIVSK	-0.0152
HMVWMIEKDQSVILVNKLERIQVEALGKALENGNFGDRIRVINNKSGQKLLGIVESEKKIQIISKI	-2.44
HMDFKKKIIESWADIAETLRGLTVDSNISDWTTKQKNAYETLADKAELAGLSIADLNSILVELGYM	-0.0868
HMKLSKKVTDFLAQMPSKSISPKMLANNLGLADDAGDYKHLLKTIAQLEESKAIEVTAAGNIALPQPE	0.0358
HMSREVTVPPLSGLTLRDAARTLAERGLLMEAEGQGAVHRQDPPAGTRVPTGTPVRVFLTLPEQNS	0.333
HMTVVHRQVHLQPDQGAFRAALYSHKAVLSEQTDDQGAINLEIRLPESDFLRLLNSSGLKLQDLVP	-0.0198
HMSTGGDLTQRERELLGLMARGLSNQEISKRLTIAMPTVKFHVTNILAKLHADNRTEAVLVALKNKLVAL	-0.748
HMEVTLGLGSMVRLLGEPYLGSTGRVVELPDQAERFASGLTAKVAVVERHDGELIRVPVTNLLLME	-0.191
HMAYSEEDRRRVREELLTTALKLMSTQGIQHTTVEQVYRSVGISRSFFYAFFPTKEDLIVEAL	0.117
HMHYALTVDFPAALEARIDPAHRAALRGVLAHDPRPSYQSDPERLYGVAFAGKNVKFTVEDGVLTVRKIEE	0.0218
HMSATPQRMTIIDALDSSGKNLSAYELLDLLNDKGQLFNISTIYRVLDFWIEMGIVHKINSSNTYL	0.125
HMDNEYDKVYQAALSKLEGYPRSSITTAVIKDVVAQTIKYFEIKNFGYEDTIINQLQSAFTVKSSS	-0.0856
HMTTTYTVPKVTGMTLEEAREDPDVVGRFTIVEGEKVTSDTVPVGQIVSQEPAAHRQVGEDGLTITVNIS	0.289
HMTITPEVIVNHFKNLDLFFTKNGNYYEFKKKGTENILFKYGIYKQKPNIFVKIQRYPISSLSDLERIPI	-0.844
HMAEWLFDARKIPDEVMNYLRRIAVQAIEEKHYSPELVADLLGISRSSIYDWLNWYRNGGEEDLDTRKA	-0.613
HMAYRLDVRNQTKGTYLVIQKKYWDKEKKQSRTKHHMSLGYVHDLQKLYSDPITHYKEVINQMNAEEKG	-1.54
HMTVKRNLVQEILRLKFRHPENFMPNRAFYQEVGINQMRWWDIFYGRKNINQEEYIALSKYF	-0.237
HMTQEHDESVNLGKRLLDQALSRFGTSYRQLKKSEIKRILQSSGASTFKYILHQIGLGNRVPLAIANLIV	-0.0734
HMEGEVVESPLVGVAYLASGPDKPAFVQVGDSVSKGQTLLIIEAMKVMNEVPAPRDGIVTEILV	0.0266
HMRNKTVKEVLDYIEKNSEFIFFYYSKAIDTKRIVSLSVKDQPITVILDQLFKNTDVLYEIKDRQISLKRE	0.277
HMANAGKFDSDMGEKINFPGNRVSLTPSELEAARELAAIMGDRFFSQLIPTTSKVTVTEMLQSLK	0.3
HMTIHVMEIKSLLPIKILDESQHLVQSFSSKNPTSYNYRLIFSDKSKLENIKKTINENKDVESIEIRYA	-0.816
HMQLNNTDELEKIILKILENNPKQVDQFLAGKQKLLGFFVGQAMRATSGKANPKTVNDLLEKFLSK	-0.0714
HMINEEELLKIENIKRKYPDSKAALMPVLYFFQEKYGFISDDSIKEISQLLNISEVDIKGVVSFYEMFHEK	-0.59
